From US20070031912A1 (RIKEN, published 2007)
Substitutions are numbered along the chain they refer to.

B1: mKO-FM14-N (other)
chain: MVSVIKPEMKMRYYMDGSVNGHEFTIEGEGTGRPYEGHQEMTLRVTMAEGGPMPFAFDLVSHVFCYGHRVFTKYPEEIPDYFKQAFPEGLSWERSLEFEDGGSASVSAHISLRGNTFYHKSKFTGVNFPADGPIMQNQSVDWEPSTEKITASDGVLKGDVTMYLKLEG
notes: Fragment without linker and leucine zipper, made by in vitro translation; also called N-terminal fragment from the 1st to the 168th of mKO-FM14; negative control without leucine zipper
B2: mKO-FM14-N-LZA (other)
chain: MVSVIKPEMKMRYYMDGSVNGHEFTIEGEGTGRPYEGHQEMTLRVTMAEGGPMPFAFDLVSHVFCYGHRVFTKYPEEIPDYFKQAFPEGLSWERSLEFEDGGSASVSAHISLRGNTFYHKSKFTGVNFPADGPIMQNQSVDWEPSTEKITASDGVLKGDVTMYLKLEGGNSADGGGGSGGGGSGGGGSIHHTGGRAQLEKELQALEKENAQLEWELQALEKELAQK
notes: Made by in vitro translation; also called fusion of the N-terminal fragment (1st-168th) of mKO-FM14 with leucine zipper acidic (LZA)
B3: mKO-FM3-N-LZA (other)
chain: B2 chain with V70S
notes: N-terminal fragment (1-168) of mKO-FM3 (serine at position 70) fused with LZA
B4: mKO-FM24-N-LZA (other)
chain: B2 chain with V70T
notes: N-terminal fragment (1-168) of mKO-FM24 (threonine at position 70) fused with LZA
B5: mKO-FM20-N-LZA (other)
chain: B2 chain with V70C
notes: N-terminal fragment (1-168) of mKO-FM20 (cysteine at position 70) fused with LZA
B6: mKO-FM5-N-LZA (other)
chain: B2 chain with V70A
notes: N-terminal fragment (1-168) of mKO-FM5 (alanine at position 70) fused with LZA

Columns and labels:
[1] = molecular target: T1, mKO-FM14-C; test: split fluorescent protein complementation in vitro, 20 µl of each in vitro translated fragment in PBS at 37° C., fluorescence after 3, 5 and 7 hours
T1 construct: Fragment without linker and leucine zipper, made by in vitro translation; also called C-terminal fragment from 169th to 218th of mKO-FM14; negative control without leucine zipper
T1 chain: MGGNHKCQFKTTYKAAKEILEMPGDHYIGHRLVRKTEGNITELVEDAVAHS
Procedure: (§1) 20 μl of each mKO-FM14-N-LZA and mKO-FM14-C-LZB which was synthesized by in vitro translation was added to 1000 μl of PBS and the total volume was made up to 1040 μl. The mixture was left standing at 37° C. and the fluorescence measurements were carried out every 2 hours (after 3, 5 and 7 hours from the mixing) by a F-2500 (HITACHI). The method of measurement was by the double wavelength excitation and a single wavelength measurement (excitation spectra at 580 nm, green component and orange component were set at 500 nm and 548 nm, respectively) or by the double wavelength excitation and double wavelength measurement (green fluorescence at 509 nm by excitation by 470 nm and orange fluorescence at 560 nm by excitation by 520 nm were obtained) (FIG. 2). Also, as negative controls, 20 μl of each mKO-FM14-N and mKO-FM14-C which was synthesized by in vitro translation and to which no proteins for interaction were fused was added to 1000 μl of PBS and the total volume was made up to 1040 μl. The mixture was left standing at 37° C. and the fluorescence measurements were carried out every 2 hours (after 3, 5 and 7 hours from the mixing) by a F-2500 (HITACHI).

[2] = molecular target: T2, mKO-FM14-C-LZB; test: split fluorescent protein complementation in vitro, in vitro translated proteins mixed in PBS at 37° C., fluorescence after 3, 5 and 7 hours
T2 construct: Made by in vitro translation; also called fusion of the C-terminal fragment (169th-218th) of mKO-FM14 with leucine zipper basic (LZB)
T2 chain: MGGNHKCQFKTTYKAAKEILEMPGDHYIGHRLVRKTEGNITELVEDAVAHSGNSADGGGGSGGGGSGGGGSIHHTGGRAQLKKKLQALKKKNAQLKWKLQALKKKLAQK
Procedure: as §1

[3] = molecular target: T2, mKO-FM14-C-LZB; test: split fluorescent protein complementation in vitro, fluorescence from 1 to 12 hours after mixing
Procedure: as §1, with “The mixture was left standing at 37° C. and the fluorescence measurements were carried out every 2 hours (after 3, 5 and 7 hours from the mixing) by a F-2500 (HITACHI).” left out
By substituting the 70th proline (P) of mKO with various amino acids, variants were obtained in which the ratio of green fluorescence and orange fluorescence was changed according to the passage of time. The variant in which 70th proline (P) was substituted with alanine (A), serine (S), cysteine (C), threonine (T), and valine (V) was designated as mKO-FM5, mKO-FM3, mKO-FM20, mKO-FM24 and mKO-FM14, respectively. Each variant was similarly split into two molecules and similarly fused with LZA and LZB to carry out analyses.

Binder | binding result [3] | further results
B1 | – | binding result [1]: no binding
B2 | – | binding result [2]: binds
B3 | binds | –
B4 | binds | –
B5 | binds | –
B6 | binds | –
